Consider one molecule from article PMC4957052 (The Journal of Biological Chemistry, 2016).

The target of the test is T1, M. musculus αT-catenin (wild type, full length) (M. musculus, UniProt Q65CL1 1-895).
T1 construct: Cloned into pGEX-TEV; cleaved from GST with tobacco etch virus protease; also called αT (testes)-catenin; WT αT-catenin; source: E. coli BL21(DE3), purified (glutathione-agarose, TEV cleavage, Mono Q, S200 gel filtration)
T1 sequence (looked up): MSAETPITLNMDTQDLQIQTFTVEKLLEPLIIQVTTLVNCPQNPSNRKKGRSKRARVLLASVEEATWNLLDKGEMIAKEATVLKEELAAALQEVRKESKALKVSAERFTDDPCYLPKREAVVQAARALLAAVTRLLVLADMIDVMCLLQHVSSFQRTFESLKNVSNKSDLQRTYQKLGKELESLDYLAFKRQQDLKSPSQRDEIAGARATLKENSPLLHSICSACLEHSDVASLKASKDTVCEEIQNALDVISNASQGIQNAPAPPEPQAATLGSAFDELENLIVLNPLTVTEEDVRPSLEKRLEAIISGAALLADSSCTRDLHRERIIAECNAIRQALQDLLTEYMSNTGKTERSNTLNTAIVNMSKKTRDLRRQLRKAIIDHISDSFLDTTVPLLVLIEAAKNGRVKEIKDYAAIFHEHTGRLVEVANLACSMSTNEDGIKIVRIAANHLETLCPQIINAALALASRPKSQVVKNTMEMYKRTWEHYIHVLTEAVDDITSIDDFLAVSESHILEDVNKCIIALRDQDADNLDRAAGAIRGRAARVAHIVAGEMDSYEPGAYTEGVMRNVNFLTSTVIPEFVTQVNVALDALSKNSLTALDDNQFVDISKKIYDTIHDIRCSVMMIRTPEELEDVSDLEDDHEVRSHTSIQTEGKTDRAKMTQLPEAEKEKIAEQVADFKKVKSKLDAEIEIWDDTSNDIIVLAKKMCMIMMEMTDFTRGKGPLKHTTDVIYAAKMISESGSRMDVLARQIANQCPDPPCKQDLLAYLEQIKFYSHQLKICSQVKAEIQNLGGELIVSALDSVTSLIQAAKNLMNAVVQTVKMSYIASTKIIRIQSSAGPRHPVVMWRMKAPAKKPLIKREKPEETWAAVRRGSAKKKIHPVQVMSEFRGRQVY
In words: pull-down; 1-15 μg αT-catenin or V94D added to 15 μg GST-β-catenin on glutathione-agarose in 20 mM Tris pH 8, 150 mM NaCl, 5 mM DTT; >2 h at 4 °C (legend: 1 h at room temperature); five washes in PBS + 0.05% Tween 20, 5 mM DTT; Coomassie. As to conditions: both partners purified.

B1: GST-tagged full-length β-catenin (natural protein, mouse, UniProt Q02248 1-781, looked up)
chain: MATQADLMELDMAMEPDRKAAVSHWQQQSYLDSGIHSGATTTAPSLSGKGNPEEEDVDTSQVLYEWEQGFSQSFTQEQVADIDGQYAMTRAQRVRAAMFPETLDEGMQIPSTQFDAAHPTNVQRLAEPSQMLKHAVVNLINYQDDAELATRAIPELTKLLNDEDQVVVNKAAVMVHQLSKKEASRHAIMRSPQMVSAIVRTMQNTNDVETARCTAGTLHNLSHHREGLLAIFKSGGIPALVKMLGSPVDSVLFYAITTLHNLLLHQEGAKMAVRLAGGLQKMVALLNKTNVKFLAITTDCLQILAYGNQESKLIILASGGPQALVNIMRTYTYEKLLWTTSRVLKVLSVCSSNKPAIVEAGGMQALGLHLTDPSQRLVQNCLWTLRNLSDAATKQEGMEGLLGTLVQLLGSDDINVVTCAAGILSNLTCNNYKNKMMVCQVGGIEALVRTVLRAGDREDITEPAICALRHLTSRHQEAEMAQNAVRLHYGLPVVVKLLHPPSHWPLIKATVGLIRNLALCPANHAPLREQGAIPRLVQLLVRAHQDTQRRTSMGGTQQQFVEGVRMEEIVEGCTGALHILARDVHNRIVIRGLNTIPLFVQLLYSPIENIQRVAAGVLCELAQDKEAAEAIEAEGATAPLTELLHSRNEGVATYAAAVLFRMSEDKPQDYKKRLSVELTSSLFRTEPMAWNETADLGLDIGAQGEALGYRQDDPSYRSFHSGGYGQDALGMDPMMEHEMGGHHPGADYPVDGLPDLGHAQDLMDGLPPGDSNQLAWFDTDL
notes: β-catenin, full length; also called GST-β-catenin; GST-tagged β-catenin
Turning to B1, the binding result is reported as “binds”.
